How the values were obtained:
[1] = system: T1, ComPsub (Neisseria subflava), UPI00280B593C; test: EMSA; conditions: SPR (ProteOn XPR36, NLC chip): 25 mM HEPES pH 7.9, 150 mM NaCl, 2.5 mM MgCl2, 0.05% Tween-20, 25 C, 30 uM ComP; EMSA: native 10% acrylamide, LightShift kit …
T1 sequence: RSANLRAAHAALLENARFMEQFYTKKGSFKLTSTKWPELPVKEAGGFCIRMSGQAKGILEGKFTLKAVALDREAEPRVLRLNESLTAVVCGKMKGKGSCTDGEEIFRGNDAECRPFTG

[2] = system: ComP (Neisseria meningitidis 8013 (serogroup C clinical isolate)); test: SPR; conditions: SPR (ProteOn XPR36, NLC chip): 25 mM HEPES pH 7.9, 150 mM NaCl, 2.5 mM MgCl2, 0.05% Tween-20, 25 C, 30 uM ComP; EMSA: native 10% acrylamide, LightShift kit …

Row | Sequence | binding [1] | binding signal [2]
1 | GTATGGGCGGCTCGGCGTTTGGTCAGGTGTACAACAATATGAGCGGCGACGCGCCCGATTTGGACGATACAGGCCGTCTGAAAGACTTTTACGGCGTGATTCAACAGCTTGTCGCCGAAGACAAACTCTTGGCGTATCACGACCGCAGCGAC (double strand) [purL fragment with one DUSvar1] | binds | –
2 | TGACCATGCCGTCTGAACAAAC (double strand) [DUS] | – | 100 % of DUS Req

— paper PMC3868556
